Experimental data taken from publication PMC6154215.

Experiments:
Assay in all cases: fluorescence polarisation
[1] = target: bivalent ExoS L423A peptide, fluorescently labeled (Pseudomonas aeruginosa) (UniProt Q51451)
[2] = target: bivalent wild-type ExoS peptide, fluorescently labeled (Pseudomonas aeruginosa)
[3] = target: monovalent ExoS L423A peptide, fluorescently labeled (Pseudomonas aeruginosa) (UniProt Q51451)

tobacco 14-3-3 homodimer T14-3-3cΔC (domain or fragment)
Kd [1]: 5.9 µM | Kd [2]: 0.0455 µM | Kd [3]: 127 µM
